Source: patent US12466853B2, “Selective targeting of apoptosis proteins by structurally-stabilized and/or cysteine-reactive NOXA peptides” (priority 2017, dated 2025)
Numbering of substitutions follows the chain as printed. “Also recorded” adds a separate entry of the source. Positions of bridges follow the written chain, without caps; N, C: chain ends. Non-standard residues stand in square brackets, D forms with d. No end group written: not given here. R8 = C=CCCCCCC[C@@](C)(N)C(=O)O; S5 = C=CCCC[C@](C)(N)C(=O)O

Columns and labels:
[1] = target: T1, GST-MCL-1ΔNΔC (Homo sapiens, UniProt Q07820); test: Streptavidin pulldown from recombinant protein mixture, MCL-1; type: binding; settings: equimolar mixture of recombinant MCL-1, BCL-XL, BFL-1 and biotinylated SAHB, silver stain
T1 construct: BCL-XLΔC (aa 1-212) and MCL-1ΔNΔC (aa 172-329) were cloned into the PGEX-4T-1; made in house; host or cells: Escherichia coli BL21(DE3)
Method: (§1) WT His-BFL-1ΔC, BCL-XLΔC (tagless), and GST-MCL-1ΔNΔC (1 μM each) were combined and incubated with 3 mM DTT in PBS for thirty minutes at room temperature. Mixtures were treated with vehicle or the indicated C-terminally biotinylated NOXA SAHB (1 μM) for four hours and were then added to 30 μL PBS-washed high-capacity streptavidin (SA) agarose beads (Thermo Fisher Pierce) and incubated with rotation at room temperature for two hours. The beads were then washed three times with NP-40 lysis buffer (1% NP-40, 50 mM Tris pH 8, 100 mM NaCl, 2.5 mM MgCl2) and three times with PBS. To elute bound protein, beads were boiled for ten minutes with 10% SDS containing 10 mg/mL biotin. After elution, samples were boiled with 3×LDS and 2M DTT for twenty minutes. Gel electrophoresis using a 12% Bis-Tris gel was conducted on inputs (2%) and eluates (5 μL) and gels were developed using the Pierce silver staining kit (Thermo Fisher).

[2] = target: T2, native BFL-1 (Homo sapiens, UniProt Q16548); test: BFL-1 targeting in A375P lysates (streptavidin pulldown, BFL-1 western); type: binding; settings: biotinylated SAHB, compared to acetylated construct
T2 construct: endogenous in cells; host or cells: A375P melanoma cells (A10); U937 AML cells (A12), lysates
T2 sequence (Q16548 1-175): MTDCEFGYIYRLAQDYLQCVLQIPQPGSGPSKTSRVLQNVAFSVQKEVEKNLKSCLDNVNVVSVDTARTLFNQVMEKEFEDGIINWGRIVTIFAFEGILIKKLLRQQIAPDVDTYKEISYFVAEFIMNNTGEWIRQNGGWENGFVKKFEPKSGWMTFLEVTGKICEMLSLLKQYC
Method: Cultured A375P and U937 cells were trypsinized or harvested, respectively, washed with PBS, and lysed by incubating with 1% CHAPS lysis buffer (1% CHAPS, 150 mM NaCl, 50 mM Tris pH 7.4, 100 μM DTT). The protein concentrations of the soluble fraction were measured using a BCA kit according to the manufacturer's instructions (Thermo Scientific). Lysate samples (1 mg) were incubated with vehicle or C-terminally biotinylated NOXA SAHBs (30 μM) overnight in 1% CHAPS lysis buffer at 4° C. Biotin capture was accomplished by incubating the mixture with high-capacity SA agarose (Thermo Scientific) for 2 hours at 4° C., followed by centrifugation and washing the pelleted beads three times with lysis buffer (1 mL). Bead-bound proteins were eluted by boiling in 10% SDS containing 10 mg/mL biotin for 10 minutes and then subjected to electrophoresis and western blotting using BFL-1 (Abcam, #125259) and MCL-1 (Rockland #600-401-394S) antibodies.

[3] = target: T3, His-BFL-1ΔC (Homo sapiens, UniProt Q16548); test: Streptavidin pulldown from recombinant protein mixture, BFL-1; type: binding; settings: equimolar mixture of recombinant MCL-1, BCL-XL, BFL-1 and biotinylated SAHB, silver stain; listed as D-NA-NOXA SAHB
T3 construct: Recombinant anti-apoptotic BFL-1ΔC (aa 1-151) and its cysteine to serine mutants were cloned into PET17b; made in house; host or cells: Escherichia coli LOBSTR BL21(DE3)
T3 sequence (Q16548 1-151): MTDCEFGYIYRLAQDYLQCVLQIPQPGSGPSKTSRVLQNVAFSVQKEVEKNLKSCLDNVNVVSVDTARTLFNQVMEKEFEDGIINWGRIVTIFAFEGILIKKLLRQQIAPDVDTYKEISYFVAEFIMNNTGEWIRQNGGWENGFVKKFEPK
Method: as §1

[4] = tested on: A375P cells; test: LDH release assay, A375P cells; type: cell-based, human; settings: 30 min
Method: After overnight incubation for A375P cells, or immediately upon plating for U937 cells, the cells were treated with the indicated concentrations of D-NA-NOXA SAHBs in DMEM or RPMI supplemented with 5% FBS for the indicated time period (30 min, 4 h). After plate centrifugation at 1,500 rpm (Thermo Scientific Sorvall Four-Place Swinging Bucket Rotor [75006445]; 478×g) for 5 min at 4° C., LDH release was quantified by transferring 100 μL of cell-culture medium to a clear plate (Corning), incubating with 100 μL of LDH reagent (Roche) for 30 min while shaking, and then measuring absorbance at 490 nm on a microplate reader (Spectramax M5, Molecular Devices).

[5] = target: T4, His-BFL-1ΔC C4S/C19S (Homo sapiens, UniProt Q16548, C19S/C4S); test: In vitro covalent conjugation assay (gel shift, Coomassie; intact mass spectrometry); type: binding
T4 construct: Recombinant anti-apoptotic BFL-1ΔC (aa 1-151) and its cysteine to serine mutants were cloned into PET17b; made in house; host or cells: Escherichia coli LOBSTR BL21(DE3)
T4 sequence (Q16548 1-151 C4S/C19S): T3 sequence (Q16548 1-151) with C4S, C19S
Description: To generate constructs with particular binding selectivities, cell penetrance properties, in vivo stability, and biological activity to enable the development of a drug for clinical use, staple scanning methodology was first used to generate a library of cysteine-reactive NOXA SAHBs to optimize binding potency, selectivity, and cellular penetrance. […] Staple scanning was achieved by sequential placement of (i, i+4) and (i, i+7) staples across the length of the peptide template, while keeping the N-terminal D-nipecotic acid (D-NA) reactive group constant (FIG. 2). We measured the reactivity of this NOXA library by incubating each peptide with BFL-1ΔC and detecting a higher molecular weight conjugate upon reducing and denaturing gel electrophoresis, and Coomassie staining (FIG. 3). Those peptides capable of covalent reaction with BFL-1 were advanced to cellular testing for peptide uptake. 293T cells transfected with HA-BFL-1ΔC C4S/C19S were treated with peptide (20 μM, 6 hr), and then harvested and lysates analyzed by anti-HA western blotting (FIG. 4). […] However, upon LDH release testing in A375P cells, this peptide was unexpectedly found to cause membrane disruption (FIG. 5). […]

T1 sequence (Q07820 172-329, stated change not applied): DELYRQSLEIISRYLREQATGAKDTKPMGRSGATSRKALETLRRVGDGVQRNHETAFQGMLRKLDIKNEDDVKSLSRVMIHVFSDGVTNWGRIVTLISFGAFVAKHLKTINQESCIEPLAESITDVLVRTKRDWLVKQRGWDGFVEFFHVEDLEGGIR

“*AT8LRRFGDXLNFRQ (AT[R8]LRRFGD[S5]LNFRQ; staple 3-10 (inferred); not fully specified (N-terminus); printed as *AT8LRRFGDXLNFRQ; also: N-terminal cap * is Ac or D-nipecotic acid, not settled) [NOXA-15]” was tested, and the “MCL-1 binding / pull down” value [1] was “similarly small amount of MCL-1”, the “targeting of native BFL-1” value [2] was “markedly enhanced BFL-1 pull down compared to Ac-NOXA SAHB” and the “BFL-1 binding / pull down” value [3] was “robust BFL-1 pull down; also recorded: substantial pull-down of BFL-1”. The “LDH release (lytic activity)” value [4] was “non-specific cell lysis”, the “BFL-1 crosslinking (increase in molecular weight)” value ([5]; BFL-1 constructs bearing C55 (wild-type and C4S/C19S) vs C55S, C4S/C19S/C55S) was “discrete increase in molecular weight” and the “conversion of BFL-1 C4S/C19S to peptide adduct” value ([5]; intact mass spectrometry) was “complete conversion”.
